Laboratory results reported in patent publication US20230094463A1 (TRUEBINDING, published 2023).
Changes are numbered by the printed parent chain.

B1: 6H6.2D6 (antibody, V domains shown)
VH: QIQLVQSGPELKKPGETVKISCKASGYTFTTYGMSWVKQAPGKGLKWMAWINTYSGVPTYADDFKGRFAFSLETSASTAYLQINNLTNEDTATYFCARGPYAMDYWGQGTSVTVSS
VL: DIQMTQTTSSLSASLGDRVTISCSASQGISNYLNWYQQKPDGTVKLLIYYTSSLHSGVPSRFSGSGSGTDYSLTISNLEPEDIATYYCQQYSELPYTFGSGTKLEIK
B2: 23H9.2E4 (antibody, V domains shown)
VH: B1 VH with G33A, A49G, F64L, T87K
VL: B1 VL with S30N, T51A, E93Q, L94V
B3: 20H5.A3 (antibody, V domains shown)
VH: B1 VH with T17S, T28A, K38Q, A49G, I51V, Y60C, T87R
VL: B1 VL with S22N, G28D, H55L, Y87F, E93K, K103H

How the values were obtained:
[1] = target: T1, Human Galectin-3 protein (Acro Biosystems, GA3-H5129) (human, UniProt P17931 2-250); experiment: ELISA, blocking of INSR binding to coated Gal3
T1 construct: Bought protein; also called Gal3-ECD-His; Gal3-His; not shown: linker-spaced 6-histidine tag

[2] = target: T1, Human Galectin-3 protein (Acro …); experiment: SPR (Biacore T200), antibody captured, Galectin-3 as analyte
[3] = target: T1, Human Galectin-3 protein (Acro …); experiment: blocking ELISA (Gal3 coated; antibody 3 µg/mL + INSR)
[4] = target: T1, Human Galectin-3 protein (Acro …); experiment: ELISA, blocking of INSR binding to coated Gal3; remark: listed apart in the source
[5] = target: T2, Gal3 Peptide 7 (AYPGAPGAYPGAPAPGVYPG) (human); experiment: peptide ELISA (peptide coated)
T2 peptide: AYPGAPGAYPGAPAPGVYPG

[6] = target: T3, Gal3 Peptide 1 (ADNFSLHDALSGSGNPNPQG) (human); experiment: peptide ELISA (peptide coated)
T3 peptide: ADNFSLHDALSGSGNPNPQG

[7] = target: T2, Gal3 Peptide 7 (AYPGAPGAYPGAPAPGVYPG); experiment: peptide ELISA: Gal3 peptide coated on the plate, antibody (hIgG4 S228P) at 5 µg/mL, anti-human IgG-HRP, A450 (Example 18)
[8] = target: T4, Gal3 Peptide 6 (GAYPGQAPPGAYPGAPGAYP) (human); experiment: as above
T4 peptide: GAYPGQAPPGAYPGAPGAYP

[9] = target: T3, Gal3 Peptide 1 (ADNFSLHDALSGSGNPNPQG); experiment: as above
[10] = target: T5, Human GAL3 protein (TrueBinding, QCB200349 / QCB200352; R&D Systems, 8259-GA) (human, UniProt P17931 2-250); experiment: blocking ELISA (GAL3 coated; antibody + biotinylated ITGa3)
T5 construct: also called human galectin-3

[11] = target: T5, Human GAL3 protein (TrueBinding, …); experiment: blocking ELISA (GAL3 coated; antibody + biotinylated ITGb3)
[12] = target: T5, Human GAL3 protein (TrueBinding, …); experiment: blocking ELISA (GAL3 coated; antibody + biotinylated ITGaV)
[13] = target: T2, Gal3 Peptide 7 (AYPGAPGAYPGAPAPGVYPG); experiment: peptide ELISA (peptide coated; antibody hIgG4 [S228P], 5 µg/mL)
[14] = target: T4, Gal3 Peptide 6 (GAYPGQAPPGAYPGAPGAYP); experiment: as above
[15] = target: T3, Gal3 Peptide 1 (ADNFSLHDALSGSGNPNPQG); experiment: as above

Row | Binder | Gal3-INSR Blocking @ 3 µg/mL [1] | Kd [2] | Gal3-INSR binding remaining, % of unblocked sample [3] | IC50 (read off the curve) [4] | binding result [5] | binding result [6] | binding result [7] | binding result [8] | binding result [9] | percent blockade of GAL3-ITGa3 interaction [10] | percent blockade of GAL3-ITGb3 interaction [11] | percent blockade of GAL3-ITGaV interaction [12] | binding result [13] | binding result [14] | binding result [15]
1 | B1 | 100% | 4.86 nM | < 5% | ~0.5 µg/mL | binds | binds | – | – | – | – | – | – | – | – | –
2 | B2 | 100% | 4.26 nM | < 5% | – | – | – | binds | binds | binds | > 90% | > 90% | > 90% | – | – | –
3 | B3 | 100% | 3.95 nM | < 5% | ~0.5 µg/mL | – | – | – | – | – | > 90% | > 90% | > 90% | binds | binds | binds
